Results taken from patent US20120213786A1 (ONCOMED PHARMACEUTICALS, published 2012).

B1: murine monoclonal antibody 52M51 (antibody, mouse IgG1, V domains shown)
VH: QVQLQQSGAELMKPGASVKISCKAAGYTMRGYWIEWIKQRPGHGLEWIGQILPGTGRTNYNEKFKGKATFTADTSSNTANMQLSSLTSEDSAVYYCARFDGNYGYYAMDYWGQGSSVTVSS
VL: QAVVTQESALTTSPGETVTLTCRSSTGAVTTSNYANWVQEKPDHLFTGLIGGTNNRAPGVPARFSGSLIGDKAALTITGAQTEDEAIYFCALWYSNHWVFGGGTKLTVLG
notes: Hybridoma-derived mouse antibody; also called anti-Notch1 antibody 52M51; ATCC PTA-9405
B2: humanized antibody 52M51H4L3 (antibody, human IgG2, lambda, V domains shown)
VH: QVQLVQSGAEVKKPGASVKISCKVSGYTLRGYWIEWVRQAPGKGLEWIGQILPGTGRTNYNEKFKGRVTMTADTSTDTAYMELSSLRSEDTAVYYCARFDGNYGYYAMDYWGQGTTVTVSS
VL: SQAVVTQEPSLTVSPGGTVTLTCRSSTGAVTTSNYANWFQQKPGQAPRTLIGGTNNRAPGVPARFSGSLLGGKAALTLSGAQPEDEAEYYCALWYSNHWVFGGGTKLTVLG
notes: Heavy chain 52M51-H4 (human IgG2 constant region) with light chain 52M51 L3 (human IgLC1 constant region); also called humanized variant of 52M51; ATCC PTA-9549
B3: humanized antibody 52M51H4L4 (antibody, human IgG2, lambda, V domains shown)
VH: B2 VH
VL: SQTVVTQEPSFSVSPGGTVTLTCRSSTGAVTTSNYANWYQQTPGQAPRTLIGGTNNRAPGVPDRFSGSILGNKAALTITGAQADDESDYYCALWYSNHWVFGGGTKLTVLG
notes: Heavy chain 52M51-H4 (human IgG2 constant region) with light chain 52M51 L4 (human IgLC1 constant region)

target: T1, recombinant human Notch1 protein (human, UniProt P46531 1426-1731, limits assumed); assay: SPR (Biacore 2000), recombinant human Notch1 amine-coupled to CM5 chip, antibody injected, global fit
T1 construct: also called antigen
T1 sequence (looked up): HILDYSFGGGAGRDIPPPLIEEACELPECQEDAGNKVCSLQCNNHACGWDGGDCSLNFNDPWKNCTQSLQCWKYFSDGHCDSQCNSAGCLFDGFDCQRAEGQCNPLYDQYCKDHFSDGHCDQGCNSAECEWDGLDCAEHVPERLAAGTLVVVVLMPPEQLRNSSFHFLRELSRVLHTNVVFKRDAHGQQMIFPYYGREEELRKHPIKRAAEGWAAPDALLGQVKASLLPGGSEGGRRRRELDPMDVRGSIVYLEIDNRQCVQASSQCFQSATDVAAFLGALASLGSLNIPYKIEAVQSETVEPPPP
Procedure: The affinities for human and mouse Notch1 were determined using a Biacore 2000 instrument. Briefly, recombinant human and mouse Notch1 proteins were immobilized on a CM5 chip using standard amine based chemistry (NHS/EDC). Different antibody concentrations were injected over the protein surfaces and kinetic data were collected over time. The data was fit using the simultaneous global fit equation to yield dissociation constants (KD, nM) for each Notch1 (Table 2).

Binder	Kd [nM]
B1	2.86
B2	4.33
B3	7.35
